Reference: patent US11279747 (UNIVERSITAT ZURICH, dated 2022)
Where a chain is given by its changes, count along the chain named.

T1: mouse Pirb (mouse, UniProt P97484 25-642, limits assumed)
T1 construct: Bought protein coated on the ELISA plate; also called PirB (murine homologue to LILRB)
T1 sequence (looked up): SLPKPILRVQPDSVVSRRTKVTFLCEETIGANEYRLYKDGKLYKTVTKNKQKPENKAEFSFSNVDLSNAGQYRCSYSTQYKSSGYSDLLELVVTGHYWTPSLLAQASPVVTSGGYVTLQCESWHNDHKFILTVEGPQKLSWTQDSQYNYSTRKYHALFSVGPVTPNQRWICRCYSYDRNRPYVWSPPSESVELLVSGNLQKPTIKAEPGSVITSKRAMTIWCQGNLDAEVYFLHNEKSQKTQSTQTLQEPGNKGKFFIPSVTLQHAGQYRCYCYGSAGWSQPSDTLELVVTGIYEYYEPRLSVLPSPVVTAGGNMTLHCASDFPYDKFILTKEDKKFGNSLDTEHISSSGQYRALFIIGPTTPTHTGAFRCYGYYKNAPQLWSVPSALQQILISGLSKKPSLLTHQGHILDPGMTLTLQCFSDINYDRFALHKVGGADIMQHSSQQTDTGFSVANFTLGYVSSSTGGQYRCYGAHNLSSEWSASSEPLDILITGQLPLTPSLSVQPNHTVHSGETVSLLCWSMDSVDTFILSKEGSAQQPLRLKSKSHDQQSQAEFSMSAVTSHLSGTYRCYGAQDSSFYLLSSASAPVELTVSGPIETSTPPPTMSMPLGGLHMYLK

B1: A302-Fc (Fc fusion)
chain: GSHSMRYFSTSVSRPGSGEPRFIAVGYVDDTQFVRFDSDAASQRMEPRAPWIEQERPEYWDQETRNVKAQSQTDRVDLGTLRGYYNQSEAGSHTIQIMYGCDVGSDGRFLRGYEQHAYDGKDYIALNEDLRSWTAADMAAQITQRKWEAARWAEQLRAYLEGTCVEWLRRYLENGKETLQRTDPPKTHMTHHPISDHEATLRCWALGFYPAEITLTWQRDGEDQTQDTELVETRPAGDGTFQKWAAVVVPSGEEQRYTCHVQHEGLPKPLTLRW
notes: also called HLA2-Fc; HLA-A30 open conformer; not shown: human IgG4 Fc (human IgG4-Fc vector, InvivoGen)
B2: C082-Fc (Fc fusion)
chain: CSHSMRYFYTAVSRPGRGEPRFIAVGYVDDTQFVQFDSDAASPRGEPRAPWVEQEGPEYWDRETQKYKRQAQTDRVSLRNLRGYYNQSEAGSHTLQRMYGCDLGPDGRLLRGYNQFAYDGKDYIALNEDLRSWTAADTAAQITQRKWEAARTAEQLRAYLEGTCVEWLRRYLENGKKTLQRAEHPKTHVTHHPVSDHEATLRCWALGFYPAEITLTWQRDGEDQTQDTELVETRPAGDGTFQKWAAVVVPSGEEQRYTCHVQHEGLPEPLTLRW
notes: also called HLA2-Fc; HLA-C08 open conformer; not shown: human IgG4 Fc (human IgG4-Fc vector, InvivoGen)
B3: C122-Fc (Fc fusion)
chain: B2 chain with Q35R, T73A, N114D, F116S, T152E, L156W, K177E
notes: also called HLA2-Fc; HLA-C12 open conformer; not shown: human IgG4 Fc (human IgG4-Fc vector, InvivoGen)
B4: human KIR3DL2 (receptor, UniProt P43630 22-340, looked up)
chain: LMGGQDKPFLSARPSTVVPRGGHVALQCHYRRGFNNFMLYKEDRSHVPIFHGRIFQESFIMGPVTPAHAGTYRCRGSRPHSLTGWSAPSNPLVIMVTGNHRKPSLLAHPGPLLKSGETVILQCWSDVMFEHFFLHREGISEDPSRLVGQIHDGVSKANFSIGPLMPVLAGTYRCYGSVPHSPYQLSAPSDPLDIVITGLYEKPSLSAQPGPTVQAGENVTLSCSSWSSYDIYHLSREGEAHERRLRAVPKVNRTFQADFPLGPATHGGTYRCFGSFRALPCVWSNSSDPLLVSVTGNPSSSWPSPTEPSSKSGICRHLH
notes: Bought protein coated on the ELISA plate; also called hu KIR3DL2
B5: A252-Fc (Fc fusion)
chain: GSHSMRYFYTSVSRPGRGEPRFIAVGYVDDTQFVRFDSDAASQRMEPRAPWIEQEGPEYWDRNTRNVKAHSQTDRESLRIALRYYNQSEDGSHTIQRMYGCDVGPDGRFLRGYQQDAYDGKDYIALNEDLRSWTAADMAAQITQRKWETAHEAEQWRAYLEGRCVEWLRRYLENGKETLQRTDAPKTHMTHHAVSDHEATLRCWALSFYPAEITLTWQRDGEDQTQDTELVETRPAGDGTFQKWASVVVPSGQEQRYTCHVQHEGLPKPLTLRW
notes: also called HLA2-Fc; HLA-A25 open conformer; not shown: human IgG4 Fc (human IgG4-Fc vector, InvivoGen)
B6: B272-Fc (Fc fusion)
chain: GSHSMRYFHTSVSRPGRGEPRFITVGYVDDTLFVRFDSDAASPREEPRAPWIEQEGPEYWDRETQICKAKAQTDREDLRTLLRYYNQSEAGSHTLQNMYGCDVGPDGRLLRGYHQDAYDGKDYIALNEDLSSWTAADTAAQITQRKWEAARVAEQLRAYLEGECVEWLRRYLENGKETLQRADPPKTHVTHHPISDHEATLRCWALGFYPAEITLTWQRDGEDQTQDTELVETRPAGDRTFQKWAAVVVPSGEEQRYTCHVQHEGLPKPLTLRW
notes: also called B27052-Fc; HLA2-Fc; not shown: human IgG4 Fc (human IgG4-Fc vector, InvivoGen)
B7: B582-Fc (Fc fusion)
chain: GSHSMRYFYTAMSRPGRGEPRFIAVGYVDDTQFVRFDSDAASPRTEPRAPWIEQEGPEYWDGETRNMKASAQTYRENLRIALRYYNQSEAGSHIIQRMYGCDLGPDGRLLRGHDQSAYDGKDYIALNEDLSSWTAADTAAQITQRKWEAARVAEQLRAYLEGLCVEWLRRYLENGKETLQRADPPKTHVTHHPVSDHEATLRCWALGFYPAEITLTWQRDGEDQTQDTELVETRPAGDRTFQKWAAVVVPSGEEQRYTCHVQHEGLPKPLTLRW
notes: also called HLA2-Fc; HLA-B58 open conformer; not shown: human IgG4 Fc (human IgG4-Fc vector, InvivoGen)
B8: B532-Fc (Fc fusion)
chain: B7 chain with G62R, E63N, R65Q, N66I, M67F, A69T, S70N, A71T
notes: also called HLA2-Fc; HLA-B53 open conformer; not shown: human IgG4 Fc (human IgG4-Fc vector, InvivoGen)
B9: B572-Fc (Fc fusion)
chain: B7 chain with T45M, E46A, R97V, L103V, V194I
notes: also called HLA2-Fc; HLA-B57 open conformer; not shown: human IgG4 Fc (human IgG4-Fc vector, InvivoGen)

The binders below were run against T2, human KIR3DL1 (human, UniProt P43629 22-340, limits assumed) (assay: ELISA (FIG. 5A)).
T2 construct: Bought protein coated on the ELISA plate; also called hu KIR3DL1
Protocol: (§1) A) hu KIR3DL1, B) hu KIR3DL2, and C) hu KIR3DL3 are expressed in NK cells and subpopulations of T cells. D) LILRB1, and E) LILRB2 expressed mostly in myeloid cells, F) PirB (murine homologue to LILRB) and G) PTPRJ (on leukocytes is preferentially expressed in MDSCs cells and activated T cells) Figure 5:
(§2) Competition ELISA assays were performed using Maxisorp (Nunc, Switzerland) 96 well plates coated with 10 μg/mL of selected leukocyte receptors (human KIR3DL1, human KIR3DL2, human KIR3DL3, human LILRB1, human LILRB2, human PTPRJ and mouse Pirb) purchased from Creative Biomart. Receptors were incubated for ON 4° C., blocked with 5% milk powder-TBS 2 hrs. HLA_2-Fc selected constructs (A25_2-Fc, A30_2-Fc, B2705_2-Fc, B53_2-Fc, B57_2-Fc, B58_2-Fc, C08_2-F, and C12_2-Fc) and their controls (A25-β2m-Fc, A30-β2m-Fc, B2705-β2m-Fc, B53-β2m-Fc, B57-β2m-Fc, B58-β2m-Fc, C08-β2m-Fc and C12-β2m-Fc) and isotype IgG4 were added at 10 μg/mL for 2 hrs RT. HRP-conjugated antibodies against human Fc were used as detectors.

T2 sequence (P43629 22-340 limits assumed): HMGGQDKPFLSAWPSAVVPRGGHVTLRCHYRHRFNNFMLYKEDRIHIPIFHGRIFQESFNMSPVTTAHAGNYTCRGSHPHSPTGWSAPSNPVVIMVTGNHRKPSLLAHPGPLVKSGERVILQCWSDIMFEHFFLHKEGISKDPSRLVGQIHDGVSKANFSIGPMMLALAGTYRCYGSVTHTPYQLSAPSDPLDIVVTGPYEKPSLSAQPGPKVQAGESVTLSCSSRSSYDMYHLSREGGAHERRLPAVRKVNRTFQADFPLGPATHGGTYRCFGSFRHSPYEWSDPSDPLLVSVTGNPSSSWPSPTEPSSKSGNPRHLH

| Binder | binding result |
| --- | --- |
| B1 | binds |
| B2 | binds |
| B3 | binds |

These binders were tested against B4 (assay: ELISA (FIG. 5B)).
Protocol: as §1, §2

| Binder | binding result |
| --- | --- |
| B1 | binds |
| B2 | binds |
| B3 | binds |

The binders below were run against T3, human KIR3DL3 (human, UniProt Q8N743 26-322, limits assumed) (assay: ELISA (FIG. 5C)).
T3 construct: Bought protein coated on the ELISA plate; also called hu KIR3DL3
Protocol: as §1, §2

T3 sequence (Q8N743 26-322 limits assumed): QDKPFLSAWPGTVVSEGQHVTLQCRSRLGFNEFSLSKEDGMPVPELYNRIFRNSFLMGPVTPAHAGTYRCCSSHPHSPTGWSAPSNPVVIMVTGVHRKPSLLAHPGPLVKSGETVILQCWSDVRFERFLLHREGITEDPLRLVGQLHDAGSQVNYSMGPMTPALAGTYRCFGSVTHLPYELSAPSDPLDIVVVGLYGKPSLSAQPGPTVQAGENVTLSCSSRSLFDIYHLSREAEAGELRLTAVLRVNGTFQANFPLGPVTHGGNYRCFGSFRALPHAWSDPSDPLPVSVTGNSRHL

| Binder | binding result |
| --- | --- |
| B2 | binds |
| B3 | binds |

What follows are binders tested against T4, human LILRB1 (human, UniProt Q8NHL6 24-458, limits assumed) (assay: ELISA (FIG. 5D)).
T4 construct: Bought protein coated on the ELISA plate
Protocol: as §1, §2

T4 sequence (Q8NHL6 24-458 limits assumed): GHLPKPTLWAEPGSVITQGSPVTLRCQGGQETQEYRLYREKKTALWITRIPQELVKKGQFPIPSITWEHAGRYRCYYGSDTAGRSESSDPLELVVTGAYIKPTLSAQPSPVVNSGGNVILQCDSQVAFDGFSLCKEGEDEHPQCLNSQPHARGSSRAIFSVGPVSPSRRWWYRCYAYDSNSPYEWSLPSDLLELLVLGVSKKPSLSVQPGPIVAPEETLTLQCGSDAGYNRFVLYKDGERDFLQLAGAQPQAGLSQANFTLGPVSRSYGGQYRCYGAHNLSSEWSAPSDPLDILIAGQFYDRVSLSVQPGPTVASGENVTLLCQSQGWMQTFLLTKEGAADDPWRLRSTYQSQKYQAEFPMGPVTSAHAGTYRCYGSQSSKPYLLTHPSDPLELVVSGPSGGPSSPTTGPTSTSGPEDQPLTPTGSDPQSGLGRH

| Binder | binding result |
| --- | --- |
| B2 | binds |
| B3 | binds |

These binders were tested against T5, human LILRB2 (human, UniProt Q8N423 22-458, limits assumed) (assay: ELISA (FIG. 5E)).
T5 construct: Bought protein coated on the ELISA plate
Protocol: as §1, §2

T5 sequence (Q8N423 22-458 limits assumed): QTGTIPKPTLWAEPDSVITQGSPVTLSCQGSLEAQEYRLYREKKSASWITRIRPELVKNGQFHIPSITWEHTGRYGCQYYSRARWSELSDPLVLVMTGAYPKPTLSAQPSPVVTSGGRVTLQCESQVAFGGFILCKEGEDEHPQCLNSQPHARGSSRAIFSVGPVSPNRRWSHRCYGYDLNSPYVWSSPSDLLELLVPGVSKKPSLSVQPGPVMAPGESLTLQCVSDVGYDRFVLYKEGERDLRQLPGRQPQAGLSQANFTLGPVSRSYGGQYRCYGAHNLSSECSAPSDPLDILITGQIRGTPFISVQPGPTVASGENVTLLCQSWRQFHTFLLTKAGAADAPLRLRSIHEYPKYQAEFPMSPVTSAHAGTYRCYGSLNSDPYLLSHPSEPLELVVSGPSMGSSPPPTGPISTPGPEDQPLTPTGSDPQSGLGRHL

| Binder | binding result |
| --- | --- |
| B2 | binds |
| B3 | binds |

Each binder was assayed against T1, mouse Pirb (assay: ELISA (FIG. 5F)).
Protocol: as §1, §2

| Binder | binding result |
| --- | --- |
| B2 | binds |
| B3 | binds |

These binders were tested against T6, A30-β2m-Fc (human, UniProt P61769 21-119) (assay: ELISA, receptor coated at 10 µg/mL, anti-human Fc-HRP).
T6 construct: HLA-Fc heavy chain with beta2m, made in CHO cells; also called HLA-β2m-Fc; control MHC-Ia heterotrimer; not shown: human IgG4 Fc (human IgG4-Fc vector, InvivoGen)
Protocol: as §2

T6 sequence (P61769 21-119 limits assumed): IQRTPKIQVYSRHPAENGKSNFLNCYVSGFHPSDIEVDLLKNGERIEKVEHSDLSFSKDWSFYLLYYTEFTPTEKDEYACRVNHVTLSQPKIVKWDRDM

| Binder | binding result |
| --- | --- |
| B4 | no binding (tested: 10 µg/mL) |

What follows are binders tested against T7, B27-β2m-Fc (human, UniProt P61769 21-119) in the same assay as above.
T7 construct: HLA-Fc heavy chain with beta2m, made in CHO cells; also called B2705-β2m-Fc; HLA-β2m-Fc; not shown: human IgG4 Fc (human IgG4-Fc vector, InvivoGen)
Protocol: as §2

T7 sequence (P61769 21-119 limits assumed): as above

| Binder | binding result |
| --- | --- |
| B4 | no binding (tested: 10 µg/mL) |

The binders below were run against T8, B53-β2m-Fc (human, UniProt P61769 21-119, limits assumed) in the same assay as above.
T8 construct: HLA-Fc heavy chain with beta2m, made in CHO cells; also called HLA-β2m-Fc; control MHC-Ia heterotrimer; not shown: human IgG4 Fc (human IgG4-Fc vector, InvivoGen)
Protocol: as §2

T8 sequence (P61769 21-119 limits assumed): as above

| Binder | binding result |
| --- | --- |
| B4 | no binding (tested: 10 µg/mL) |

Each binder was assayed against T9, B57-β2m-Fc (human, UniProt P61769 21-119, limits assumed) in the same assay as above.
T9 construct: HLA-Fc heavy chain with beta2m, made in CHO cells; also called HLA-β2m-Fc; control MHC-Ia heterotrimer; not shown: human IgG4 Fc (human IgG4-Fc vector, InvivoGen)
Protocol: as §2

T9 sequence (P61769 21-119 limits assumed): as above

| Binder | binding result |
| --- | --- |
| B4 | no binding (tested: 10 µg/mL) |

What follows are binders tested against T10, B58-β2m-Fc (human, UniProt P61769 21-119, limits assumed) in the same assay as above.
T10 construct: HLA-Fc heavy chain with beta2m, made in CHO cells; also called HLA-β2m-Fc; control MHC-Ia heterotrimer; not shown: human IgG4 Fc (human IgG4-Fc vector, InvivoGen)
Protocol: as §2

T10 sequence (P61769 21-119 limits assumed): as above

| Binder | binding result |
| --- | --- |
| B4 | no binding (tested: 10 µg/mL) |

The binders below were run against T11, A25-β2m-Fc (human, UniProt P61769 21-119, limits assumed) in the same assay as above.
T11 construct: HLA-Fc heavy chain with beta2m, made in CHO cells; also called HLA-β2m-Fc; control MHC-Ia heterotrimer; not shown: human IgG4 Fc (human IgG4-Fc vector, InvivoGen)
Protocol: as §2

T11 sequence (P61769 21-119 limits assumed): as above

| Binder | binding result |
| --- | --- |
| B4 | no binding (tested: 10 µg/mL) |

The binders below were run against T2, human KIR3DL1 (assay: ELISA, receptor coated at 10 µg/mL, HLA2-Fc at 10 µg/mL, anti-human Fc-HRP).
Protocol: as §2

| Binder | binding result |
| --- | --- |
| B5 | binds |
| B6 | binds |
| B7 | binds |
| B8 | binds |
| B9 | binds |

What follows are binders tested against B4 in the same assay as above.
Protocol: as §2

| Binder | binding result |
| --- | --- |
| B5 | binds |
| B6 | binds |
| B7 | binds |
| B8 | binds |
| B9 | binds |

Each binder was assayed against T3, human KIR3DL3 in the same assay as above.
Protocol: as §2

| Binder | binding result |
| --- | --- |
| B5 | binds |
| B1 | binds |
| B6 | binds |
| B7 | binds |
| B8 | binds |
| B9 | binds |

These binders were tested against T4, human LILRB1 in the same assay as above.
Protocol: as §2

| Binder | binding result |
| --- | --- |
| B5 | binds |
| B1 | binds |
| B6 | binds |
| B7 | binds |
| B8 | binds |
| B9 | binds |

These binders were tested against T5, human LILRB2 in the same assay as above.
Protocol: as §2

| Binder | binding result |
| --- | --- |
| B5 | binds |
| B1 | binds |
| B6 | binds |
| B7 | binds |
| B8 | binds |
| B9 | binds |

What follows are binders tested against T1, mouse Pirb in the same assay as above.
Protocol: as §2

| Binder | binding result |
| --- | --- |
| B5 | binds |
| B1 | binds |
| B6 | binds |
| B7 | binds |
| B8 | binds |
| B9 | binds |
